The target of the data set is human insulin (Homo sapiens, UniProt P01308;P01308 25-54;90-110). The data set can be described thus: graphene field-effect transistor.

Experimental findings from paper PMC7875320 are described below.

As a reminder, the Kd is the constant that tells how readily two partners part at equilibrium.

human insulin, sequence (P01308 25-54, chain 1 of 2): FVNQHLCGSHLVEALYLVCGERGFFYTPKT
human insulin, sequence (P01308 90-110, chain 2 of 2): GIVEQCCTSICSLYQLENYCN

GGTGGTGGGGGGGGTTGGTAGGGTGTCTTC (structured_DNA, 5'-NH2 (amine)) [IGA3] yielded a Kd of 35 nM.
